Experimental data taken from US10744233B2, “Crystallization inhibitor compositions for implantable urological devices” (Innovative Surface Technologies, Inc., priority 2016, dated 2020).

What was measured:
[1] = Osteopontin elution assay (ELISA); assay type: physicochemical; conditions: 1X PBS, 37° C.
Method: Osteopontin Elution Assay
To determine the amount of osteopontin released, coated Parylene™ coated discs were placed in 2 mL of 1×PBS for up to 30 days. The buffer was exchanged at approximately 30 minutes, 1 hour, 1 day, 5 days, 10 days, 15 days, and 30 days. Eluted samples were refrigerated until assaying. Osteopontin was quantified using an Osteopontin ELISA kit (R &D Systems, Mpls, MN) following the kit's instructions.
Sample discs coated with either osteopontin loaded PLGA coatings or empty PLGA coatings were placed in 1×PBS for elution over 30 days at 37° C., with the elution buffer exchanged at days 1, 5, 10, 15, and 30.
Total release per disc was 0.3 ng osteopontin released over 30 days (6-mg PLGA coating/3 ng osteopontin loading per disc).

[2] = Encrustation assay in artificial urine without bacteria; conditions: two separate experiments (Table 3)
Method: Artificial urine solutions contained either:
The coatings were analyzed for encrustation.
In addition, both the Wet 1 and Dry POC coatings were analyzed for encrustation using the same procedure described previously.

| Compound | Osteopontin release period ([1]; 30 days) | Total osteopontin release per disc ([1]; over 30 days, 6-mg PLGA coating/3 ng osteopontin loading per disc) | Reduction of encrustation compared to control empty PLGA [2] | Reduction of encrustation compared to uncoated [2] |
| --- | --- | --- | --- | --- |
| osteopontin: human osteopontin (R&D Systems), sialoprotein; in b151 it is released from the osteopontin-loaded PLGA coating | released over the entire 30-day period | 0.3 ng | – | – |
| O=C(O)CC(O)(CC(=O)O)C(=O)O [citric acid] | – | – | 26-48% | up to 66% |
